Source: patent publication US20220096653A1, “CONJUGATE COMPRISING LIGAND AND CEACAM5 ANTIBODY FAB FRAGMENT” (ASTELLAS PHARMA INC., priority 2019, published 2022)

T1: CEACAM5 (R&D Systems, 4128-CM-050) (human, UniProt P06731 35-685)
T1 construct: Immobilised on the ELISA plate; also called human CEACAM5
T1 sequence (looked up): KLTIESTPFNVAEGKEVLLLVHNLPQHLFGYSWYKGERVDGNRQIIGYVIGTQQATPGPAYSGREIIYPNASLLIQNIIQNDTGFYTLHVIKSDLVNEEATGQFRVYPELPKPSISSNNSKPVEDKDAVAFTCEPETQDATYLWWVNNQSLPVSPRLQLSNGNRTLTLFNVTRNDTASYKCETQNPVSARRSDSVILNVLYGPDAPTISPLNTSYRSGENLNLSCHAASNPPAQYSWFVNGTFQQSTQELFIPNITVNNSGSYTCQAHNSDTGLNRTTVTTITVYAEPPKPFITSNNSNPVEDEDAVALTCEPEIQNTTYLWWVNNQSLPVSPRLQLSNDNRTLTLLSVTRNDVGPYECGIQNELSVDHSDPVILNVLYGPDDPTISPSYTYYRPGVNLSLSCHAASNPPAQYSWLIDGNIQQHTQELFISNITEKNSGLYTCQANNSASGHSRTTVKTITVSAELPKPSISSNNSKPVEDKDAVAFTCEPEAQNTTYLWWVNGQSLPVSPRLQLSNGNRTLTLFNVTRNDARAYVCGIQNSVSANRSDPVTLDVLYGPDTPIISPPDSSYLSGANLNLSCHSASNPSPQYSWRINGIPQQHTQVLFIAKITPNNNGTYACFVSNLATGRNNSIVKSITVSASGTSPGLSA

B1: (Y-S1-X)p-Fab^2 with Y Gd/DOTA, S1 -NH-CH2-(1,3-Ph)-C(═O)-, X -Gly-Lys*-Z2(#S)- (Fab, V domains shown)
VH: EVQLVESGGGLVQPGGSLRLSCAASGFNIRDTYMHWVRQAPGKGLEWVARIDPANGNSRYVPKFQGRFTISADTSRNTAYLQMNSLRAEDTAVYYCAPFGYYVSDYAMAYWGQGTLVTVSS
VL: DIQLTQSPSSLSASVGDRVTITCRAGESVDIFGVGFLHWYQQKPGKAPKLLIYRASNLESGIPSRFSGSGSRTDFTLTISSLQPEDFATYYCQQTNEDPYTFGQGTKVEIKR
modifications: labeling may sit on this chain; sites not stated; labeling portion (MW 1059) on amino groups of the Fab, sites and chain not stated; 1-2 per Fab by MS
notes: also called Ex-No 6; conjugate 6
B2: (Y-S1-X)p-Fab^2 with Y Gd/DOTA, S1 spacer (b), X -Gly-Lys*-Z2(#N)- (Fab, V domains shown)
VH: B1 VH
VL: B1 VL
modifications: labeling may sit on this chain; sites not stated; labeling portion (MW 950) on amino groups of the Fab, sites and chain not stated; 1-3 per Fab by MS
notes: also called Ex-No 27; conjugate 27
B3: (Y-S1-X)p-Fab^2 with Y Gd/DOTA, S1 - (bond), X -Gly-Tyr-NH-(CH2)5-Z1(#S)- (Fab, V domains shown)
VH: B1 VH
VL: B1 VL
modifications: labeling may sit on this chain; sites not stated; labeling portion (MW 1045) on amino groups of the Fab, sites and chain not stated; 1-3 per Fab by MS
notes: also called Ex-No 37; conjugate 37
B4: [Gd/DOTA-NH-CH2-(1,4-Ph)-NH-C(═O)-Met-Ile-NH-(CH2)2-Z1(#N)]p-Fab^2 (Fab, V domains shown)
VH: B1 VH
VL: B1 VL
modifications: labeling may sit on this chain; sites not stated; labeling portion (MW 1074) on amino groups of the Fab, sites and chain not stated; 1-3 per Fab by MS
notes: also called Ex-No 18; Conjugate No. 18
B5: [Gd/DOTA-NH-CH2-(1,3-Ph)-C(═O)-Met-Gly-Lys*-Z2(#S)]p-Fab^2 (Fab, V domains shown)
VH: B1 VH
VL: B1 VL
modifications: labeling may sit on this chain; sites not stated; labeling portion (MW 1190) bound via 2-iminothiolane-treated amino groups of the Fab, sites and chain not stated; 1-2 per Fab by MS
notes: also called Ex-No 24; Conjugate No. 24
B6: (Y-S1-X)p-Fab^2 with Y Gd/DOTA, S1 -NH-(CH2CH2O)3-CH2-C(═O)-, X -Met-Gly-Lys*-Z2(#N)- (Fab, V domains shown)
VH: B1 VH
VL: B1 VL
modifications: labeling may sit on this chain; sites not stated; labeling portion (MW 1145) on amino groups of the Fab, sites and chain not stated; 1-4 per Fab by MS
notes: also called Ex-No 41; conjugate 41
B7: (Y-S1-X)p-Fab^2 with Y Gd/DOTA, S1 - (bond), X -Met-Ile-NH-(CH2)2-Z1(#S)- (Fab, V domains shown)
VH: B1 VH
VL: B1 VL
modifications: labeling may sit on this chain; sites not stated; labeling portion (MW 1027) on amino groups of the Fab, sites and chain not stated; 1-2 per Fab by MS
notes: also called Ex-No 8; conjugate 8
B8: (Y-S1-X)p-Fab^2 with Y Gd/DOTA, S1 -NH-(CH2)3-C(═O)-, X -Gly-Tyr*-CH2-C(═O)-NH-(CH2)2-Z1(#N)- (Fab, V domains shown)
VH: B1 VH
VL: B1 VL
modifications: labeling may sit on this chain; sites not stated; labeling portion (MW 1045) on amino groups of the Fab, sites and chain not stated; 1-3 per Fab by MS
notes: also called Ex-No 36; conjugate 36
B9: [Gd/DOTA-NH-CH2-(1,3-Ph)-C(═O)-Asp-Gly-Lys*-Z2(#N)]p-Fab^2 (Fab, V domains shown)
VH: B1 VH
VL: B1 VL
modifications: labeling may sit on this chain; sites not stated; labeling portion (MW 1073) on amino groups of the Fab, sites and chain not stated; 1-3 per Fab by MS
notes: also called Ex-No 11; Conjugate No. 11
B10: (Y-S1-X)p-Fab^2 with Y Gd/DOTA, S1 -NH-(CH2CH2O)3-CH2-C(═O)-NH-CH2-(1,3-Ph)-C(═O)-, X -Gly-Tyr*-CH-C(═O)-NH-(CH2)2-Z1(#S) (Fab, V domains shown)
VH: B1 VH
VL: B1 VL
modifications: labeling may sit on this chain; sites not stated; labeling portion (MW 1384) on amino groups of the Fab, sites and chain not stated; 1-3 per Fab by MS
notes: also called Ex-No 39; conjugate 39
B11: (Y-S1-X)p-Fab^2 with Y Gd/DOTA, S1 -NH-CH2-(1,3-Ph)-C(═O)-, X -Gly-Lys*-Z2(#N)- (Fab, V domains shown)
VH: B1 VH
VL: B1 VL
modifications: labeling may sit on this chain; sites not stated; labeling portion (MW 958) on amino groups of the Fab, sites and chain not stated; 1-3 per Fab by MS
notes: also called Ex-No 9; conjugate 9
B12: (Y-S1-X)p-Fab^2 with Y Gd/DOTA, S1 - (bond), X -Met-Ile-Lys*-Z2(#N)- (Fab, V domains shown)
VH: B1 VH
VL: B1 VL
modifications: labeling may sit on this chain; sites not stated; labeling portion (MW 1012) on amino groups of the Fab, sites and chain not stated; 1-2 per Fab by MS
notes: also called Ex-No 10; conjugate 10
B13: [Gd/4arm-DOTA-CH2-(1,4-Ph)-NH-C(═S)-Gly-Phe-Lys*-Z2(#N)]p-Fab^2 (Fab, V domains shown)
VH: B1 VH
VL: B1 VL
modifications: labeling may sit on this chain; sites not stated; labeling portion (MW 1136) on amino groups of the Fab, sites and chain not stated; 1-3 per Fab by MS
notes: also called Ex-No 12; Conjugate No. 12
B14: (Y-S1-X)p-Fab^2 with Y Gd/DOTA, S1 given only as drawing CHEM-US-00151, X -Met-Gly-Lys*-Z2(#N)- (Fab, V domains shown)
VH: B1 VH
VL: B1 VL
modifications: labeling may sit on this chain; sites not stated; labeling portion (MW 1101) on amino groups of the Fab, sites and chain not stated; 1-2 per Fab by MS
notes: also called Ex-No 34; conjugate 34
B15: (Y-S1-X)p-Fab^2 with Y Gd/DOTA, S1 spacer (c), X -Gly-Lys*-Z2(#N)- (Fab, V domains shown)
VH: B1 VH
VL: B1 VL
modifications: labeling may sit on this chain; sites not stated; labeling portion (MW 908) on amino groups of the Fab, sites and chain not stated; 1-3 per Fab by MS
notes: also called Ex-No 28; conjugate 28
B16: [Gd/DOTA-NH-(CH2CH2O)3-CH2-C(═O)-NH-CH2-(1,3-Ph)-C(═O)-Met-Gly-Lys*-Z2(#S)]p-Fab^2 (Fab, V domains shown)
VH: B1 VH
VL: B1 VL
modifications: labeling may sit on this chain; sites not stated; labeling portion (MW 1380) bound via 2-iminothiolane-treated amino groups of the Fab, sites and chain not stated; 1 per Fab by MS
notes: also called Ex-No 35; Conjugate No. 35
B17: (Y-S1-X)p-Fab^2 with Y Gd/DOTA, S1 -NH-(CH2CH2O)3-CH2-C(═O)-NH-CH2-(1,3-Ph)-C(═O)-, X -Gly-Lys*-Z2(#S)- (Fab, V domains shown)
VH: B1 VH
VL: B1 VL
modifications: labeling may sit on this chain; sites not stated; labeling portion (MW 1248) on amino groups of the Fab, sites and chain not stated; 1-2 per Fab by MS
notes: also called Ex-No 25; conjugate 25
B18: (Y-S1-X)p-Fab^2 with Y Gd/DOTA, S1 - (bond), X -Gly-Tyr*-CH2-C(═O)-NH-(CH2O)3-CH2-C(═O)-NH-(CH2)2-Z1(#N)- (Fab, V domains shown)
VH: B1 VH
VL: B1 VL
modifications: labeling may sit on this chain; sites not stated; labeling portion (MW 1149) on amino groups of the Fab, sites and chain not stated; 1-2 per Fab by MS
notes: also called Ex-No 17; conjugate 17

Biological target: T1, CEACAM5 (R&D Systems, 4128-CM-050)
Test: ELISA on immobilised CEACAM5, 4-parameter fit, duplicate
Method: Each anti-human CEACAM5 antibody Fab fragment conjugate prepared in Example 2 was subjected to ELISA to evaluate the binding activity thereof to CEACAM5. In the present test, a phosphate buffer (Nacalai Tesque Inc., 0.1 mol/L-Phosphate Buffer Solution (pH 7.2)) prepared to 10 mM by diluting 10-fold with distilled water was used as a solvent for an antigen immobilization liquid, and 20×PBS/Tween 20 Buffer (Thermo Fisher Scientific Inc., 28352) diluted 20-fold with distilled water was used as a wash liquid. In addition, for bovine serum albumin (BSA) used in the present test, 30% Bovine Serum Albumin solution (Sigma-Aldrich, Inc., A9576-50ML) was added in an appropriate proportion for use. CEACAM5 (R&D Systems, 4128-CM-050) was diluted with a 10 mM phosphate buffer (pH 7.2) to 0.1 μg/mL, and added to a Nunc MaxiSorp White 384 plate (Nunc, 4603272) at 30 μL per well, and the plate was incubated overnight at 4° C. for immobilization. The CEACAM5 immobilization liquid was removed by reverse centrifugation, and then blocking was carried out by adding a PBS/Tween 20 buffer containing 5.0% BSA. Thereafter, the blocking solution was removed by reverse centrifugation, a solution of each CEACAM5 antibody Fab² fragment conjugate described above or a Fab² fragment having no labeling portion (PB009-01) as a control at about 10000 ng/mL was diluted in 14 steps by 3-fold dilution using a PBS/Tween 20 buffer containing 1.0% BSA, and 30 μL was added per well and incubated at room temperature for 60 minutes. The plate was washed 3 times with a PBS/Tween 20 buffer, and Horseradish Peroxidase (HRP)-labeled goat anti-human IgG (H+L chain) antibody (MBL Life Sciences, 206) diluted 1000-fold using a PBS/Tween 20 buffer containing 5.0% BSA was added at 30 μL per well and incubated at room temperature for 30 minutes. The plate was washed 3 times with a PBS/Tween 20 buffer, and ECL Prime Western Blotting DETECTION Reagent (GE Healthcare, RPN2232) as a substrate was added at 30 μL per well. The substrate was incubated at room temperature for 15 minutes, and then a signal value thereof was measured using an Envision counter (PerkinElmer, Inc.).
The test for each antibody was carried out in duplicate, and an EC₅₀ value was calculated using a 4-parameter logistic curve model.

Row | EC50 [nM] | Binder
1 | 0.14 | B1
2 | 0.46 | B2
3 | 0.23 | B3
4 | 0.24 | B4
5 | 0.25 | B5
6 | 0.21 | B6
7 | 0.11 | B7
8 | 0.38 | B8
9 | 0.14 | B9
10 | 0.2 | B10
11 | 0.1 | B11
12 | 0.11 | B12
13 | 0.11 | B13
14 | 0.38 | B14
15 | 0.36 | B15
16 | 0.43 | B16
17 | 0.32 | B17
18 | 0.23 | B18
